Consider 1 molecule from PMC10328401 (Science Advances, 2023).

In this assay the target is T1, RsgI2-PD C-terminal fragment after autocleavage at Asn97-Pro98 (Clostridium thermocellum DSM 1313, UniProt A3DC27 98-259).
T1 sequence (looked up): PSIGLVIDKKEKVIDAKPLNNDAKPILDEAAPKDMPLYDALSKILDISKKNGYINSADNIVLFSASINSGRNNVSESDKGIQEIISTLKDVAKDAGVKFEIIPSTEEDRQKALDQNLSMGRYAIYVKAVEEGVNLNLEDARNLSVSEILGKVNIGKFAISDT
Briefly: crystal structure.

B1: RsgI2-PD N-terminal fragment after autocleavage at Asn97-Pro98 (β1 strand chain, twelve residues) (peptide, UniProt A3DC27 86-97, looked up)
chain: SQEYAYIDVDIN
Take B1: the binding result is “binds”.
